Substitutions are numbered along the chain they refer to.
What was measured:
[1] = biological target: T1, human FcγRIIb extracellular domain (human, UniProt P31994 43-217); assay: SPR Biacore 8K+, antibody captured, FcγR as analyte, steady state affinity model
T1 construct: extracellular domain; also called hFcγR IIb
T1 sequence (looked up): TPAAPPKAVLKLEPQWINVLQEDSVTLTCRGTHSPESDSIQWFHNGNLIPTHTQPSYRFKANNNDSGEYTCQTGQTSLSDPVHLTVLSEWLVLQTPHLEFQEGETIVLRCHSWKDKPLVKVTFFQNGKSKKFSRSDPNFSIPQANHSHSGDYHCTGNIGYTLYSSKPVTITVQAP
Experimental: (§1) The interaction between the produced antibodies and human FcγRs was analyzed using Biacore 8K+ by the method below. For the running buffer, 50 mM Na-Phosphate, 150 mM NaCl, and 0.05% Tween20 (pH 7.4) was used, and measurement was performed at 25° C. The sensor chip used was a Series S SA chip (GE Healthcare) onto which CaptureSelect Human Fab-kappa Kinetics Biotin Conjugate (Thermo Fisher Scientific) was immobilized. An antibody of interest was captured onto this chip, and each FcγR diluted with the running buffer was allowed to interact with it. The chip was regenerated using 10 mM Glycine-HCl (pH 1.5), and repeatedly used to capture antibodies and perform measurement. The dissociation constants KD (mol/L) of each antibody for FcγRs were calculated using Biacore Insight Evaluation Software, with a steady state affinity model for the dissociation constant for FcγRIIb and a 1:1 Langmuir binding model for the dissociation constants for the other FcγRs (Table 48).

[2] = biological target: T2, human FcγRIIa H extracellular domain (human, UniProt P12318 34-217); assay: SPR Biacore 8K+; KD for FcγRIIb divided by KD for this FcγR;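 further: antibodies captured on an anti-human Fab kappa SA chip with soluble human FcγR ectodomains flowed over, FcγRIIb KD from steady-state fit, other FcγR KD from Langmuir model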
T2 construct: extracellular domain; also called hFcγR IIa H
T2 sequence (looked up): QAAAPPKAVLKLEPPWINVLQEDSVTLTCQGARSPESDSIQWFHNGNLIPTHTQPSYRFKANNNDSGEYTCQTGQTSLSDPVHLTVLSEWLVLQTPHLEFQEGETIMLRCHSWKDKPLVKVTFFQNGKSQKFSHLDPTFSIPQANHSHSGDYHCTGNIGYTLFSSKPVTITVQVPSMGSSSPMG

[3] = biological target: T3, human FcγRIIIa F extracellular domain (human, UniProt P08637 17-208); assay: as above
T3 construct: extracellular domain; also called hFcγR IIIa F

[4] = biological target: T4, human FcγRIIa R extracellular domain (human, UniProt P12318 34-217); assay: as above
T4 construct: extracellular domain; also called hFcγR IIa R
T4 sequence (looked up): T2 sequence (looked up) with H134R

[5] = biological target: T5, human FcγRIIIa V extracellular domain (human, UniProt P08637 17-208); assay: as above
T5 construct: extracellular domain; also called hFcγR IIIa V

[6] = biological target: T6, human FcγRIa extracellular domain (human, UniProt P12314 16-292); assay: SPR Biacore 8K+; KD of G1d divided by KD of this antibody;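 further: antibodies captured on an anti-Fab-kappa streptavidin chip, soluble FcγR ectodomains flowed over, KD by steady-state fit for FcγRIIb and Langmuir kinetic model for the other receptors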
T6 construct: extracellular domain; also called hFcγR Ia; hFcγRIa
Experimental: as §1

[7] = biological target: T2, human FcγRIIa H extracellular domain; assay: as above
Experimental: as §1

[8] = biological target: T3, human FcγRIIIa F extracellular domain; assay: as above
Experimental: as §1

[9] = biological target: T4, human FcγRIIa R extracellular domain; assay: as above
Experimental: as §1

[10] = biological target: T1, human FcγRIIb extracellular domain; assay: as above
Experimental: as §1

[11] = biological target: T5, human FcγRIIIa V extracellular domain; assay: as above
Experimental: as §1

[12] = biological target: T6, human FcγRIa extracellular domain; assay: SPR Biacore 8K+, antibody captured, FcγR as analyte, 1:1 Langmuir model;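 further: antibodies captured on a streptavidin chip through a biotinylated anti-human Fab kappa reagent, with FcγR extracellular domains injected in pH 7.4 phosphate buffer at 25 °C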
Experimental: as §1

[13] = biological target: T2, human FcγRIIa H extracellular domain; assay: as above
Experimental: as §1

[14] = biological target: T3, human FcγRIIIa F extracellular domain; assay: as above
Experimental: as §1

[15] = biological target: T4, human FcγRIIa R extracellular domain; assay: as above
Experimental: as §1

[16] = biological target: T5, human FcγRIIIa V extracellular domain; assay: as above
Experimental: as §1

[17] = biological target: T7, human FcγRIIa R allotype extracellular domain with C-terminal His-tag (human, UniProt P12318 34-217); assay: SPR; KD of 04H1637-G1m/04L1610-lam1 divided by KD of variant;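 further: biacore T200 SPR at 25 °C, antibodies captured on anti-Fab-lambda SA chip with receptor as analyte, running buffer pH 7.4 for FcγRs and pH 6.0 for FcRn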
T7 construct: extracellular domain; also called hFcγR IIa R
T7 sequence (looked up): T2 sequence (looked up) with H134R

[18] = biological target: T8, human FcγRIIIa F allotype extracellular domain with C-terminal His-tag (human, UniProt P08637 17-208); assay: as above
T8 construct: extracellular domain; also called hFcγR IIIa F

[19] = biological target: T9, human FcγRIa extracellular domain with C-terminal His-tag (human, UniProt P12314 16-292); assay: as above
T9 construct: extracellular domain; also called hFcγR Ia; hFcγRIa

[20] = biological target: T10, human FcγRIIa H allotype extracellular domain with C-terminal His-tag (human, UniProt P12318 34-217); assay: as above
T10 construct: extracellular domain; also called hFcγR IIa H
T10 sequence (looked up): T2 sequence (looked up)

[21] = biological target: T11, human FcγRIIIa V allotype extracellular domain with C-terminal His-tag (human, UniProt P08637 17-208); assay: as above
T11 construct: extracellular domain; also called hFcγR IIIa V

[22] = biological target: T12, human FcγRIIb extracellular domain with C-terminal His-tag (human, UniProt P31994 43-217); assay: SPR; binding amount divided by that of 04H1637-G1m/04L1610-lam1
T12 construct: extracellular domain; also called hFcγR IIb
T12 sequence (looked up): T1 sequence (looked up)

[23] = biological target: T12, human FcγRIIb extracellular domain with …; assay: SPR; FcγRIIb at 1000 nM, bound amount per unit captured Ab
Experimental: The interaction between the generated antibodies and human FcγRs was analyzed by the following method using Biacore T200. 50 mM Na-Phosphate, 150 mM NaCl, 0.05% Tween20 (pH 7.4) was used as the running buffer, and the assay was performed at 25° C. For the sensor chips, Series S SA (GE Healthcare) chips onto which CaptureSelect Human Fab-lambda Kinetics Biotin Conjugate (Thermo Fisher Scientific) was immobilized were used. The antibodies of interest were captured onto these chips and each FcγR diluted in the running buffer was allowed to interact with them. Chips were regenerated with 10 mM Glycine-HCl (pH 1.5) and 25 mM NaOH, and assay was performed by repeatedly capturing antibodies. The dissociation constants KD (mol/L) for FcγRs of each antibody were calculated using Biacore T200 Evaluation Software 2.0, using the 1:1 Langmuir binding model for FcγRIa and FcγRIIIa and the steady state affinity model for FcγRIIa. For FcγRIIb, the binding amount of FcγRIIb per unit amount of antibody was calculated by correcting the binding amount of FcγRIIb obtained from the sensorgram obtained by the measurement with the amount of antibody captured onto the chip surface.

[24] = biological target: T7, human FcγRIIa R allotype extracellular …; assay: SPR Biacore T200, Ab captured via Fab-lambda, pH 7.4, 25C;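 further: antibodies captured on a streptavidin chip carrying biotinylated anti-Fab-lambda, with each FcγR injected as analyte in phosphate buffer. KD fitted by 1:1 Langmuir or steady-state model depending on receptor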
[25] = biological target: T8, human FcγRIIIa F allotype extracellular …; assay: as above
[26] = biological target: T9, human FcγRIa extracellular domain with …; assay: as above
[27] = biological target: T10, human FcγRIIa H allotype extracellular …; assay: as above
[28] = biological target: T11, human FcγRIIIa V allotype extracellular …; assay: as above

T3 sequence (P08637 17-208): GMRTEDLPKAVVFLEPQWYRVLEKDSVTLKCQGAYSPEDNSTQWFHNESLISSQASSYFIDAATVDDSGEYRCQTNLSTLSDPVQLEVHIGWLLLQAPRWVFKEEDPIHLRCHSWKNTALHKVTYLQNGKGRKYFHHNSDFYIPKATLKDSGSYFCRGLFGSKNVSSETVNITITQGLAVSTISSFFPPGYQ
T5 sequence (P08637 17-208 F176V limits assumed): as the sequence (P08637 17-208) above, with F160V counted along it
T8 sequence (P08637 17-208): as the sequence (P08637 17-208) above
T6 sequence (P12314 16-292): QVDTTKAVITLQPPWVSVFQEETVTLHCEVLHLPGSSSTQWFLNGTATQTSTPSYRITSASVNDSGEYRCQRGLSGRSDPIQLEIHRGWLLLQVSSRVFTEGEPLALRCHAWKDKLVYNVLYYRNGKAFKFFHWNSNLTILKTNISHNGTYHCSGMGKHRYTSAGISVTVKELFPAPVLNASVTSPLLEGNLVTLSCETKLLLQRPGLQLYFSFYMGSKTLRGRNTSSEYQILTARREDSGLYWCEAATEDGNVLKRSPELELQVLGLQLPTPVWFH
T9 sequence (P12314 16-292): as above
T11 sequence (P08637 17-208 F176V): as the sequence (P08637 17-208) above, with F160V counted along it

B1: H240-Kn032/L73-k0//H240-Hl032/L73-k0 (antibody)
heavy 1: QDQLVQSGAEVKKPGASVKVSCKASGFNIKDTYIQWVRQAPGQGLEWMGRIDPLRKQTKYREKFEGRVTITADTSTNTAYMELSSLRSEDTAVYYCVRSGREFDYWGQGTLVTVSSASTKGPSVFPLAPSSKSTSGGTAALGCLVKDYFPEPVTVSWNSGALTSGVHTFPAVLQSSGLYSLSSVVTVPSSSLGTQTYICNVNHKPSNTKVDKKVEPKSCDKTHTCPPCPAPELLGGPDVFLFPPKPKDTLMISRTPEVTCVVVDVSHEDPEVKFNWYVDGVEVHNAKTKPREEQYNSTYRVVSVLTVLHQDWLNGKEYKCKVSNKALPLPEEKTISKAKGQPREPQVCTLPPSRDELTKNQVSLWCLVKGFYPSDIAVEWESNGQPENNYKTTPPVLDSDGSFFLYSKLTVDKSRWQQGNVFSCSVMHEALHNHYTQKSLSLSP
heavy 2: B1 heavy 1 with C348Y, D355C, W365S, L367A, Y406V
light: DIQMTQSPSSLSASVGDRVTITCRASQDIHKYIAWYQQKPGQAPRLLIQYTSTLQPGVPSRFSGSGSGTDYTFTISSLQPEDIATYYCLQYEQLRTFGGGTKVEIKRTVAAPSVFIFPPSDEQLKSGTASVVCLLNNFYPREAKVQWKVDNALQSGNSQESVTEQDSKDSTYSLSSTLTLSKADYEKHKVYACEVTHQGLSSPVTKSFNRGEC
notes: also called EGL-SDALIE; SDALIE
With B1 the Kd [1] was 2590 nM, the “A/I ratio (KD for FcγRIIb divided by KD for each FcγR)” value [2] was 2.2 and the “A/I ratio (KD for FcγRIIb divided by KD for each FcγR)” value [3] was 98.7. The “A/I ratio (KD for FcγRIIb divided by KD for each FcγR)” value [4] was 2.8, the “A/I ratio (KD for FcγRIIb divided by KD for each FcγR)” value [5] was 266 and the “Relative value to KD between G1d and hFcgRs” value [6] was 54.3. The “Relative value to KD between G1d and hFcgRs” value [7] was 1, the “Relative value to KD between G1d and hFcgRs” value [8] was 113 and the “Relative value to KD between G1d and hFcgRs” value [9] was 1.8. The “Relative value to KD between G1d and hFcgRs” value [10] was 3.9, the “Relative value to KD between G1d and hFcgRs” value [11] was 36.8 and the Kd [12] was 1.66 pM. It also gave a Kd [13] of 1180 nM, a Kd [14] of 26.2 nM and a Kd [15] of 935 nM. It also gave a Kd [16] of 9.73 nM.

B2: 04H1637-Kn462/04L1610-lam1//04H1637-Hl441/04L1610-lam1 (antibody, human IgG1, lambda)
heavy 1: QVQLVESGGGLVKPGGSLRLSCAASGFTFSSKTMNWVRQAPGKGLEWVSSISTQSHYIYYAESVRGRFTISRDNAKNSLYLQMNSLRAEDTAVYYCARYGKREDMLWVFDYWGQGTLVTVSSASTKGPSVFPLAPSSKSTSGGTAALGCLVKDYFPEPVTVSWNSGALTSGVHTFPAVLQSSGLYSLSSVVTVPSSSLGTQTYICNVNHKPSNTKVDKKVEPKSCDKTHTCPPCPAPEFQWGPMVFLFPPKPKDVLMISRTPEVTCVVVDVSDEEPEVKFNWYVDGVEVHNAKTKPREEQYNATYRVVSVLPVLHQDWLNGKEYKCKVSNDALPAPIEKTISKAKGQPREPQVCTLPPSRDELTKNQVSLWCLVKGFYPSDIAVEWESNGQPENNYKTTPPVLDSDGSFFLYSKLTVDKSRWQQGNVFSCSVMHEALHNHYTQKSLSLSP
heavy 2: QVQLVESGGGLVKPGGSLRLSCAASGFTFSSKTMNWVRQAPGKGLEWVSSISTQSHYIYYAESVRGRFTISRDNAKNSLYLQMNSLRAEDTAVYYCARYGKREDMLWVFDYWGQGTLVTVSSASTKGPSVFPLAPSSKSTSGGTAALGCLVKDYFPEPVTVSWNSGALTSGVHTFPAVLQSSGLYSLSSVVTVPSSSLGTQTYICNVNHKPSNTKVDKKVEPKSCDKTHTCPPCPAPELLAGPSVFLFPPKPKDVLMISRTPEVTCVVVDVSHEEPEVKFNWYVDGVEVHNAKTKPREEQYNATYRVVSVLPVLHQDWLNGKEYKCKVSNDALPAPIEETISKAKGQPREPQVYTLPPSRCELTKNQVSLSCAVKGFYPSDIAVEWESNGQPENNYKTTPPVLDSDGSFFLVSKLTVDKSRWQQGNVFSCSVMHEALHNHYTQKSLSLSP
light: QSALTQPPSASGSPGQSVTISCEGPSTGVGDYNWVHWYQQHPGKAPKLMIYFTSKKPSGVPDRFSGSKSGNTASLTVSGLQAEDEADYYCQTYAAPLGPMFGGGTKLTVLGQPKAAPSVTLFPPSSEELQANKATLVCLISDFYPGAVTVAWKADSSPVKAGVETTTPSKQSNNKYAASSYLSLTPEQWKSHRSYSCQVTHEGSTVEKTVAPTECS
notes: Heterodimerized antibody; also called 04H1637-Kn462/04L1610-lam1//04H1637-H1441/04L1610-lam1
B2 was tested, and the “Relative value to KD between G1m and hFcγRs” value [17] was 9.2, the “Relative value to KD between G1m and hFcγRs” value [18] was 79.5 and the “Relative value to KD between G1m and hFcγRs” value [19] was 0.3. The “Relative value to KD between G1m and hFcγRs” value [20] was 20.9, the “Relative value to KD between G1m and hFcγRs” value [21] was 45.8 and the Relative binding amount [22] was 1.6. The Binding amount [23] was 0.013, the Kd [24] was 220 nM and the Kd [25] was 17 nM. The Kd [26] was 0.15 nM, the Kd [27] was 70 nM and the Kd [28] was 5.2 nM.

Source: patent publication US20260022175A1 (Chugai, published 2026)
